# Data: patent publication US8143228B2, “Agents capable of downregulating an MSF-A dependent HIF-1α and use thereof in cancer treatment” (Medical Research Fund of Tel Aviv Sourasky Medical Center, priority 2004, dated 2012)
# “Also recorded” adds a separate entry of the source.
# B1: ΔN-MSF-A: N-terminal truncated MSF-A, deletion of the first 25 amino acids (SEQ ID NO:10, encoded by SEQ ID NO:7) (protein, listed as Homo sapiens)
# chain: ALKRSFEVEEVETPNSTPPRRVQTPLLRATVASSTQKFQDLGVKNSEPSARHVDSLSQRSPKASLRRVELSGPKAAEPVSRRTELSIDISSKQVENAGAIGPSRFGLKRAEVLGHKTPEPAPRRTEITIVKPQESAHRRMEPPASKVPEVPTAPATDAAPKRVEIQMPKPAEAPTAPSPAQTLENSEPAPVSQLQSRLEPKPQPPVAEATPRSQEATEAAPSCVGDMADTPRDAGLKQAPASRNEKAPVDFGYVGIDSILEQMRRKAMKQGFEFNIMVVGQSGLGKSTLINTLFKSKISRKSVQPTSEERIPKTIEIKSITHDIEEKGVRMKLTVIDTPGFGDHINNENCWQPIMKFINDQYEKYLQEEVNINRKKRIPDTRVHCCLYFIPATGHSLRPLDIEFMKRLSKVVNIVPVIAKADTLTLEERVHFKQRITADLLSNGIDVYPQKEFDEDSEDRLVNEKFREMIPFAVVGSDHEYQVNGKRILGRKTKWGTIEVENTTHCEFAYLRDLLIRTHMQNIKDITSSIHFEAYRVKRLNEGSSAMANGVEEKEPEAPEM
# modifications: 3xFlag tag
# B2: ΔG-MSF-A: MSF-A mutant lacking the GTP binding domain, deletion of amino acids 305-312 GQSGLGKS (SEQ ID NO:4215) (protein, listed as Homo sapiens)
# chain: MKKSYSGGTRTSSGRLRRLGDSSGPALKRSFEVEEVETPNSTPPRRVQTPLLRATVASSTQKFQDLGVKNSEPSARHVDSLSQRSPKASLRRVELSGPKAAEPVSRRTELSIDISSKQVENAGAIGPSRFGLKRAEVLGHKTPEPAPRRTEITIVKPQESAHRRMEPPASKVPEVPTAPATDAAPKRVEIQMPKPAEAPTAPSPAQTLENSEPAPVSQLQSRLEPKPQPPVAEATPRSQEATEAAPSCVGDMADTPRDAGLKQAPASRNEKAPVDFGYVGIDSILEQMRRKAMKQGFEFNIMVVTLINTLFKSKISRKSVQPTSEERIPKTIEIKSITHDIEEKGVRMKLTVIDTPGFGDHINNENCWQPIMKFINDQYEKYLQEEVNINRKKRIPDTRVHCCLYFIPATGHSLRPLDIEFMKRLSKVVNIVPVIAKADTLTLEERVHFKQRITADLLSNGIDVYPQKEFDEDSEDRLVNEKFREMIPFAVVGSDHEYQVNGKRILGRKTKWGTIEVENTTHCEFAYLRDLLIRTHMQNIKDITSSIHFEAYRVKRLNEGSSAMANGVEEKEPEAPEM
# modifications: 3xFlag tag
# Tests used:
# HIF-1α protein [1] = assay: HIF-1α protein stability assays (cycloheximide treatment, pulse-chase) in PC-3 cells; assay type: cell-based; conditions: PC-3-Neo cells, within 20 minutes, CHX 10 μg/ml, normalized to α-tubulin
# Procedure: FIGS. 16a-c are Western blot analyses depicting the effect of cycloheximide (CHX) on the expression level of HIF-1α (FIG. 16a) and α-tubulin (FIG. 16b) in PC-3-Neo or PC-3-MSF-A cells grown under normoxia. CHX was added to PC-3-Neo (lanes 1-5) or PC-3-MSF-A (lanes 6-10) at a final concentration of 10 μg/ml, for 0 (lanes 1 and 6), 5 (lanes 2 and 7), 15 (lanes 3 and 8), 30 (lanes 4 and 9) and 45 (lanes 5 and 10) minutes. Whole cell extracts were prepared and resolved by SDS-PAGE and Western blotting was performed with antibodies against HIF-1α (FIG. 16a) or α-tubulin (FIG. 16b). FIG. 16c is a graph depicting quantitation of the results obtained in FIGS. 16a and b expressed as the ratio of HIF-1α expression level normalized to that of α-tubulin. Note, the relatively slow degradation of HIF-1α in cells over-expressing the MSF-A protein, with a degradation half-life of 40 minutes as compared to the degradation half-life of less than 20 minutes in PC-3-Neo cells (FIG. 16c).
# FIGS. 17a-b depict pulse-chase analysis of HIF-1α. […] FIG. 17b-quantification of the autoradiographic HIF-1α signal by densitometry.
# HIF-1α protein stability assays—Cells were plated into 6-well plates and grown to 70% confluence. […] Immunoprecipitates were analyzed on SDS-PAGE and visualized by autoradiography.
# [2] = system: HIF-1α transcriptional activity; assay: HRE-dependent luciferase reporter gene assay in HEK 293 cells; assay type: cell-based; conditions: transient transfection, hypoxia, compared with empty vector
# Procedure: FIG. 7 is a graph depicting luciferase activity (a reporter of HIF-1α transcriptional activation) as a function of the presence or absence of the N-terminus of the MSF-A protein. HEK 293 cells were co-transfected with 0.1 μg HRE-dependent luciferase reporter [pBI-GL V6L (Post, D. E., and Van Meir, E. G. 2001. Generation of bidirectional hypoxia/HIF-responsive expression vectors to target gene expression to hypoxic cells. Gene Ther 8, 1801-1807. Mabjeesh, N. J., et al., 2002, Geldanamycin induces degradation of hypoxia-inducible factor 1 alpha protein via the proteasome pathway in prostate cancer cells. Cancer Res 62, 2478-2482) and the wild type (WT) MSF-A (p3xFlag-MSF-A), ΔN-MSF-A (ΔN) (p3xFlag-ΔN-MSF-A) or empty vector (EV) (p3xFlag-cmv-25) constructs as follows: Experiment (Exp.) No. 1=1 μg EV; Exp. No. 2=0.5 μg EV and 0.5 μg WT; Exp. No. 3-1 μg WT; Exp. No. 4=0.5 μg EV and 0.5 μg ΔN; Exp. No. 5=1 μg ΔN. After 24 hours of transfection, cells were subjected to normoxia or hypoxia for overnight and then analyzed for luciferase luminescence assay. Luciferase activity is presented as relative units per μg protein in each experiment. Columns represent means; bars represent SD; n=3; *, p<0.05 compared to hypoxia of EV. Note the significant decrease of luciferase activity in cells grown under hypoxia and transfected with the N-terminus truncated form (ΔN) of MSF-A as compared with cells transfected with the wild-type form of MSF-A. Also note that under normoxia, when the luciferase activity is hardly detected, no significant difference is obtained.
# FIG. 8 is a graph depicting luciferase activity (a reporter of HIF-1α transcriptional activation) as a function of the presence or absence of the GTP binding site of MSF-A (ΔG). HEK 293 cells were cotransfected with HRE-dependent luciferase reporter and the expression vector encoding wild-type MSF-A (WT) (p3xFlag-MSF-A), the deleted GTP binding site form of MSF-A (ΔG) (p3xFlag-ΔG-MSF-A) or empty vector (EV) (p3xFlag-cmv-25) and then were exposed to hypoxia conditions as described in the description of FIG. 4, hereinabove. Luciferase activity is presented as relative units per μg protein in each experiment. Columns represent means; bars represent SD; n=3. Note the non-significant effect of the ΔG-MSF-A on HIF-1α activity.
# Reporter gene assay and luminescence measurements—HRE-dependent luciferase activity was performed using the pBI-GL construct (pBI-GL V6L) containing six tandem copies of the VEGF hypoxia response element as previously described (Mabjeesh et al., 2002; Post and Van Meir, 2001). […] Luciferase enzymatic activity was measured using the commercial kit TROPIX (Bedford, Mass.) in the Galaxy luminometer (BMG Labtechnologies LUMIstar) following the manufacturer's instructions. […]
# HIF-1α protein [3] = molecular target: T1, HIF-1α protein (Homo sapiens, UniProt Q16665); assay: Co-immunoprecipitation / immunoblotting with HIF-1α in transfected HEK 293 cells; assay type: binding; conditions: transient transfection
# T1 construct: expressed in transfected cells; host or cells: HEK 293
# Procedure: FIGS. 9a-c are Western blot analyses of FLAG (MSF-A; FIGS. 9a and b) and HIF-1α (FIG. 9c) depicting the interaction between HIF-1α and the WT or deleted forms of MSF-A. HEK 293 cells were transiently co-transfected with expression vector encoding Flag-MSF-A (WT; p3xFlag-MSF-A), Flag-ΔG (AG; p3xFlag-ΔG-MSF-A), Flag-ΔN (ΔN; p3xFlag-ΔN-MSF-A) or empty vector (EV; p3xFlag-cmv-25). After 48 hours, the cells were lysed, subjected for immunoprecipitation (IP) using HIF-1α antibody and then immunoblotted (IB) with HIF-1α or Flag antibodies. FIG. 9a—whole cell extracts (WCE) subjected to IB with the Flag antibody (MSF-A); FIG. 9b—IP prepared by the HIF-1α antibody were subjected to IB with the Flag antibody (MSF-A); FIG. 9c—IP prepared by the HIF-1α antibody were subjected to IB with the HIF-1α antibody.
# Immunoblotting—Proteins (30-60 μg/lane) from WCEs were resolved by 7.5% SDS-PAGE, electro-blotted to nitrocellulose membranes and incubated with the indicated primary antibodies, followed by horseradish peroxidase-conjugated secondary antiserum (Amersham Biosciences, Piscataway, N.J.). Immunoreactivity was visualized by Amersham enhanced chemiluminescence reagent (Amersham Biosciences, Piscataway, N.J.). For sequential blotting with additional antibodies, the membranes were stripped from the first primary antibody using a restore Western blot stripping buffer (Pierce, Rockford, Ill.) and were re-probed using the second primary antibody as indicated.
# Immunoprecipitation—Cells were washed twice with ice-cold PBS, lysed in 20 mM Na-HEPES, pH 7.5, 0.5% Nonidet P-40, 0.1M NaCl, 2 mM EDTA, 10% Glycerol and 2 mM DTT supplemented with protease and phosphatase inhibitors, and were subjected to immunoprecipitation using anti-HIF-1α antibody and protein G-agarose beads (Pierce, Ill.) according to the manufacturer's instructions.
# To confirm the interaction between the HIF-1α and the MSF-A proteins, HEK 293 cells were transiently co-transfected with the p3xFlag-MSF-A and the pcDNA3.1-HIF-1α vectors, and were grown for 24 hours under normoxic conditions (i.e., conditions of 20% oxygen), following which whole cell extracts (WCE) were subjected to co-immunoprecipitation (IP) using anti-FLAG or anti-HIF-1α antibodies. Following IP, the proteins were subjected to SDS-PAGE and immunoblotting (IB) using the counterpart antibody. As is shown in FIGS. 3a-d, following transfection with both expression vectors (i.e., pcDNA3.1-HIF-1α and p3xFlag-MSF-A) immunoprecipitates generated using either the anti-HIF-1α antibody or the anti-Flag antibody included the reciprocal proteins, i.e., the Flag-MSF-A or HIF-1α proteins, respectively.
# T1 sequence (Q16665 whole entry): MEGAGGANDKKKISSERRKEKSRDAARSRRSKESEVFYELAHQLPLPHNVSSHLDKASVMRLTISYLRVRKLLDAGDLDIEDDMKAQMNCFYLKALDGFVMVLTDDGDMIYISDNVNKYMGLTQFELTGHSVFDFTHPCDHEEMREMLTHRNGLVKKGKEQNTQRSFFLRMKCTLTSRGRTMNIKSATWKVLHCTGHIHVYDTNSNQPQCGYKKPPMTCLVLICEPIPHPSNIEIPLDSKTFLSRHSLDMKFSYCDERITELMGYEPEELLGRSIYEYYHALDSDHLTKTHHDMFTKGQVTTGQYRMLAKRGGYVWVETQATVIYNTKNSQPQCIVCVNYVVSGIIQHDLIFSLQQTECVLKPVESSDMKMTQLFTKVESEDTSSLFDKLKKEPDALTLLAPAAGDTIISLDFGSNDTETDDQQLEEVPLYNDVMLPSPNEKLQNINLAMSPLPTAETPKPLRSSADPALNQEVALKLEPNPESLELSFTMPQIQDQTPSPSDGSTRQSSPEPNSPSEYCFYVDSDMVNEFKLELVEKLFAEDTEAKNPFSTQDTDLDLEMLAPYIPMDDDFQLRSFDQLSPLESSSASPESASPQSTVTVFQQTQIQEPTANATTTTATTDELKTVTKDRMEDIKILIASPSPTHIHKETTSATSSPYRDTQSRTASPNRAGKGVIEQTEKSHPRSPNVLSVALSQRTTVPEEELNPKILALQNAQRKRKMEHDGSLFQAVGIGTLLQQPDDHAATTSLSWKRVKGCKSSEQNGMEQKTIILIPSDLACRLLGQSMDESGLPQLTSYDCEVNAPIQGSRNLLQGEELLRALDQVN
Molecule,HIF-1α protein levels after exposure to CHX (HIF-1α protein [1]),HIF-1α transcriptional activity (luciferase reporter) [2],association with HIF-1α protein (co-immunoprecipitation) (HIF-1α protein [3]),association with HIF-1α protein (co-immunoprecipitation) (HIF-1α protein [3]; listed as N-terminal truncated form of MSF-A),association with HIF-1α protein (co-immunoprecipitation) (HIF-1α protein [3]; listed as ΔN-MSF),HIF-1α transcriptional activity (luciferase reporter) ([2]; listed as ΔG-MSF),association with HIF-1α protein (co-immunoprecipitation) (HIF-1α protein [3]; listed as ΔG-MSF)
"C[C@@H]1C[C@@H]([C@H](O)CC2CC(=O)NC(=O)C2)C(=O)[C@@H](C)C1 [CHX, cycloheximide]",about 50%,–,–,–,–,–,–
B1,–,dose-dependent inhibition; also recorded: inhibition of HIF-1α activation below the level observed in cells transfected with the empty vector,capable of binding,unable to form a protein complex,co-immunoprecipitated,–,–
B2,–,no significant effect,capable of binding,–,–,lack of activation,co-immunoprecipitated
